The values below come from EP1147413B1.

The target in this test is mouse GDF-8 pro-domain without tag, lacking the signal peptide, released from WT-GDF-8-F in QM-7 cells (mouse) (UniProt O08689). Kind of test: cell-based or functional assay.
Sequence of UniProt O08689 (O08689 20-267 limits assumed): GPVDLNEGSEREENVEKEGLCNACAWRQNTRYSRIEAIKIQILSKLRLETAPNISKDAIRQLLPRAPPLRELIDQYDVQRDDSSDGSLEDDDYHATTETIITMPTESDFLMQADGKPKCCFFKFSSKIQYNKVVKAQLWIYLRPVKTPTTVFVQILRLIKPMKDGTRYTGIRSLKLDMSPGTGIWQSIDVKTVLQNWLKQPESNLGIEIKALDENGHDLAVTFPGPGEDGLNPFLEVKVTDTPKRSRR

Regarding m-calpain (enzyme), the luciferase activity of affinity-purified GDF-8 complexes after 1U/ml m-calpain for 2 hours at 37° C, against the untreated control is 2.5 fold.
